Series [1] addresses T1, ETS1 296-441;p52-DSD (human;human, UniProt P14921;Q00653 296-441;226-328, |).
T1 sequence 1: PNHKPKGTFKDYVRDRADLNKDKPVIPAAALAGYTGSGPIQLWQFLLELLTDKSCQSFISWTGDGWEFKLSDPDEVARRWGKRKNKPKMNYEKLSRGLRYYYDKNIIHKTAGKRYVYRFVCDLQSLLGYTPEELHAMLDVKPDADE
T1 sequence 2: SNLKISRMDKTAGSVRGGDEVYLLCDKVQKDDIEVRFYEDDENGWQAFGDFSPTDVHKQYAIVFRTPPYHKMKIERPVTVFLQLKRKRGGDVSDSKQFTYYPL
As to the kind of experiment: ITC; 100 uM p52-DSD in cell; flanks make no contribution to affinity; ITC: 25 mM Tris-HCl pH 7.5, 200 mM NaCl, 3 mM TCEP, 8 °C. EMSA: 20 mM Tris-HCl pH 7.5, 150 mM NaCl, 4 °C, 1 h, 4-16% native PAGE. The following applies: protein: recombinant;recombinant; tags: GST removed (PreScission, pGEX-6P-1);GST removed (PreScission, pGEX-6P-1); copies: 1;2; blunt.

The target in series [2] is T2, Flag-tagged ETS1_(331–441), P14921.
T2 chain: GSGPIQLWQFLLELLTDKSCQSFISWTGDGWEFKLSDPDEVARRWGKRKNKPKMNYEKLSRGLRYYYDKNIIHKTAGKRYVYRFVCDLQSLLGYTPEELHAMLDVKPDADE
Kind of series: FLAG pull-down, band densitometry. The following applies: chain shown with the change;; parent: est. 1.0; read off a plot.

Series [3] has as its target T3, ETS1_(331–441), P14921.
T3 chain: T2 chain
Kind of series: ITC. For orientation: ITC needs no label: the signal is the heat of the interaction.

Series [4] deals with T4, ETS1_(331–441) (human, UniProt P14921 331-441).
T4 chain: T2 chain
Kind of series: ITC; 8 °C; 25 mM Tris-HCl pH 7.5, 200 mM NaCl, 3 mM TCEP; 20 μM ETS1 fragment in the cell titrated with 200 μM p52-RHD in the syringe; single-site model.

Series [5] concerns the target T5, ETS1_(296–441) (human, UniProt P14921 296-441).
T5 chain: T1 sequence 1
The series is described as above.

Series [6] concerns the target T5, ETS1_(296–441). Kind of series: ITC.
The target in series [7] is T4, ETS1_(331–441). Kind of series: ITC.
Series [8] concerns the target T5, ETS1_(296–441). As to the kind of experiment: ITC.
Series [9] deals with the molecule itself. Kind of series: crystal structure; p52-RHD, ETS1_(331–441) and a 15 bp -146C>T TERT promoter DNA mixed 1:1:1; crystals at 18 °C in 100 mM HEPES pH 7.0, 2.0 M ammonium sulfate.
Series [10] concerns the molecule itself. As to the kind of experiment: cross-linking + native gel or EMSA; cysteine mutants mixed at a molar ratio of 1:2, DTT removed, disulfide cross-linking with 30 µM CuCl2 and 100 µM phenanthroline for 1 h at 25 °C; 4–16% gradient blue native PAGE; reversed with 20 mM DTT. For orientation: In EMSA bound probe runs differently from free probe, usually more slowly.

Series [11] concerns the target T6, p52-RHD;ETS1 331-441 (human;human, UniProt Q00653;P14921 35-329;331-441, |).
T6 sequence 1: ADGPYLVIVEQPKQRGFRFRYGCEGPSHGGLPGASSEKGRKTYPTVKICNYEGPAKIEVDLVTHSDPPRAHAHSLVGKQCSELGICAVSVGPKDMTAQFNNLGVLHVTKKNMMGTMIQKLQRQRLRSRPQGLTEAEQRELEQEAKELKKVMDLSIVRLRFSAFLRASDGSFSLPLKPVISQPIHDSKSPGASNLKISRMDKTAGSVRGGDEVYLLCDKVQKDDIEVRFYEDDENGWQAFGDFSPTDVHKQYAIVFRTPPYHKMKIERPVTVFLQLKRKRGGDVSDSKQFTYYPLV
T6 sequence 2: T2 chain
As to the kind of experiment: X-ray crystallography; ETS1 contacts the DNA; p52-DBSD disordered and p52-DSD bound to ETS1; ITC: 25 mM Tris-HCl pH 7.5, 200 mM NaCl, 3 mM TCEP, 8 °C. EMSA: 20 mM Tris-HCl pH 7.5, 150 mM NaCl, 4 °C, 1 h, 4-16% native PAGE. The following applies: protein: recombinant;recombinant; tags: GST removed (PreScission, pGEX-6P-1);GST removed (PreScission, pGEX-6P-1); chain copies: 2;1; 5' overhang 1 nt at each end, 15 bp.

Series [12] has as its target T1, ETS1 296-441;p52-DSD. Kind of series: ITC; 100 uM p52-DSD in cell; greater affinity than ETS1 alone; ITC: 25 mM Tris-HCl pH 7.5, 200 mM NaCl, 3 mM TCEP, 8 °C. EMSA: 20 mM Tris-HCl pH 7.5, 150 mM NaCl, 4 °C, 1 h, 4-16% native PAGE. The following applies: protein: recombinant;recombinant; tags: GST removed (PreScission, pGEX-6P-1);GST removed (PreScission, pGEX-6P-1); copies: 1;2; 5' overhang 1 nt at each end, 25 bp.

The target of series [13] is T7, ETS1 296-441;p52-RHD (human;human, UniProt P14921;Q00653 296-441;35-329, |).
T7 sequence 1: T1 sequence 1
T7 sequence 2: T6 sequence 1
Kind of series: ITC; 100 uM p52-RHD in cell; no enhancement over p52-DSD; ITC: 25 mM Tris-HCl pH 7.5, 200 mM NaCl, 3 mM TCEP, 8 °C. EMSA: 20 mM Tris-HCl pH 7.5, 150 mM NaCl, 4 °C, 1 h, 4-16% native PAGE. The following applies: protein: recombinant;recombinant; tags: GST removed (PreScission, pGEX-6P-1);GST removed (PreScission, pGEX-6P-1); copies: 1;2; 5' overhang 1 nt at each end, 25 bp.

Consider ten molecules from publication PMC6085347, “Structural basis for reactivating the mutant TERT promoter by cooperative binding of p52 and ETS1” (Nature Communications, 2018).

Substitutions are numbered along the chain they refer to. Names may count otherwise.

In general, Kd refers to the constant that tells how readily two partners part at equilibrium. Higher therefore signals lower affinity.

B1: 10 bp -146C>T TERT promoter DNA (dsDNA)
DNA 1: CCCTTCCGGG
DNA 2: CCCGGAAGGG
Regarding B1, in [1], the binding result is “binds”.

B2: p52-RHD (residues 35–329), Q00653 R241A; M297A; K298A (protein)
chain: T6 sequence 1 with R207A, M263A, K264A
On to B2, for which, in [2], the ratio to parent turned out to be 0.26. The molecule further returned a Kd in series [3] (chain shown with the change) of 33.2 µM. The Ka in series [3] (chain shown with the change;, parent: 1.48E5 ± 1.07E4) worked out at 30100 M⁻¹.

B3: p52-RHD (residues 35–329) (domain or fragment, human, UniProt Q00653 35-329, looked up)
chain: T6 sequence 1
notes: In the crystal only residues 226-328 (p52-DSD) are ordered; two p52-DSD form a homodimer through a crystallographic 2-fold axis; also called WT p52
With B3, the Kd turned out to be 6.76 µM in [4] and 19.1 µM in series [6]. In [5], the fold reduction of binding against ETS1 (331–441) is 3 fold. The Ka in series [7] was found to be 148000 M⁻¹; in series [8], 52400 M⁻¹. In addition, the binding result in [9] was “binds”.

B4: p52-RHD RMK>A (domain or fragment)
chain: T6 sequence 1 with R207A, M263A, K264A
With B4, the fold reduction of binding against WT p52 in series [4] was 5 fold.

B5: p52-RHD (R241C, C57S, and C83S) (domain or fragment, human, UniProt Q00653 35-329, looked up)
chain: T6 sequence 1 with C23S, C49S, R207C
modifications: disulfide from Cys241 to Cys343 of ETS1_(331–441) (E343C and C350S) after cross-linking with CuCl2 and phenanthroline
B5: the binding result in series [10] is “binds”.

B6: p52-RHD (residues 35–329), Q00653 R241A (protein)
chain: T6 sequence 1 with R207A
Regarding B6, in [2], the ratio to parent was found to be 0.51.

B7: p52-RHD (residues 35–329), Q00653 M297A (protein)
chain: T6 sequence 1 with M263A
Consider B7, for which the ratio to parent in series [2] is 0.72.

B8: p52-RHD (residues 35–329), Q00653 K298A (protein)
chain: T6 sequence 1 with K264A
Regarding B8, the ratio to parent in series [2] turned out to be 0.69.

B9: 15 bp -146C>T TERT promoter DNA (dsDNA)
DNA 1: GCCCTTCCGGGTCCCC
DNA 2: CGGGGACCCGGAAGGG
On to B9, for which, in series [11], the binding result is “binds”.

B10: 25 bp -146C>T TERT promoter DNA (dsDNA)
DNA 1: GTCCCGACCCCTTCCGGGTCCCCGGC
DNA 2: CGCCGGGGACCCGGAAGGGGTCGGGA
For the molecule B10, the binding result in series [12] and in series [13] was “binds” each time.
